Experimental findings from paper PMC4086937, “Two Modes of Regulation of the Fatty Acid Elongase ELOVL6 by the 3-Ketoacyl-CoA Reductase KAR in the Fatty Acid Elongation Cycle” (PLoS ONE, 2014) are described below.

Numbering of substitutions follows the chain as printed. Numbers in names are those of the source.

One data set has as its target T1, KAR (Homo sapiens, UniProt Q53GQ0).
T1 construct: gene HSD17B12; N-terminal 3xFLAG, kept; HEK 293T expressed; anti-FLAG purified, co-reconstituted with ELOVL6 in POPC proteoliposomes; 36 kDa and faint N-glycosylated 39 kDa
T1 sequence (Q53GQ0 1-312): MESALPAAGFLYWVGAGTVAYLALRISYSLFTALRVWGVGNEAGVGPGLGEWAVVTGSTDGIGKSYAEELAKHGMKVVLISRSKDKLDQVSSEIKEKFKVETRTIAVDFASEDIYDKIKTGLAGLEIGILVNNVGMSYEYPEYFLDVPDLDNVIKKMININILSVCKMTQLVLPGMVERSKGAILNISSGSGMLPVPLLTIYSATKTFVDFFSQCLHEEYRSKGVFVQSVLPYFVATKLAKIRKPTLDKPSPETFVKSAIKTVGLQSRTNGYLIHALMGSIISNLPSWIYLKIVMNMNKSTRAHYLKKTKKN
T1 sequence (Q9H5J4 1-265 partner): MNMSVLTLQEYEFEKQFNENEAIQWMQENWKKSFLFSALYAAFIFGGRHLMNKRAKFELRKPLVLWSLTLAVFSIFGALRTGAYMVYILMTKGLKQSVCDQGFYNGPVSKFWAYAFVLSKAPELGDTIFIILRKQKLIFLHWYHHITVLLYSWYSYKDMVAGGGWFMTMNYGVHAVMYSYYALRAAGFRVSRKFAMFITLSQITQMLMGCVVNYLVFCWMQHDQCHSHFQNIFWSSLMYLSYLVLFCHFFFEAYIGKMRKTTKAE
The experiment in a line: coupled elongation with ELOVL6, […]malonyl-CoA, TLC. In kind it is biochemical. To be noted: 1 mM NADPH; co-reconstituted ELOVL6; 8 µM C16:0-CoA; 27.3 µM [14C]malonyl-CoA; pH 6.8; 37 °C; 90 min.

Substrate in data set [1]: CC(C)(COP(=O)(O)OP(=O)(O)OC[C@H]1O[C@@H](n2cnc3c(N)ncnc32)[C@H](O)[C@@H]1OP(=O)(O)O)[C@@H](O)C(=O)NCCC(=O)NCCSC(=O)CC(=O)O
The data set can be described thus: purified protein. The conditions noted are these: 8 µM C16:0-CoA, proteoliposomes, pH 6.8, 37 °C, 90 min, ELOVL6 alone, labelled compound. The class given is biochemical, Homo sapiens.

Substrate in data set [2]: CCCCCCCCCCCCCCCC(=O)SCCNC(=O)CCNC(=O)[C@H](O)C(C)(C)COP(=O)(O)OP(=O)(O)OC[C@H]1O[C@@H](n2cnc3c(N)ncnc32)[C@H](O)[C@@H]1OP(=O)(O)O
The experiment in a line: purified protein. The conditions noted are these: 27.3 µM [14C]malonyl-CoA, proteoliposomes, pH 6.8, 37 °C, 90 min, ELOVL6 alone. In kind it is biochemical, Homo sapiens.

The target of data set [3] is T2, 3xFLAG-ELOVL6 (fatty acid elongase ELOVL6) (human) (UniProt Q9H5J4).
T2 sequence: T1 sequence (Q9H5J4 1-265 partner)

In data set [4] the target is T2, 3xFLAG-ELOVL6 (fatty acid elongase ELOVL6) (human). This is another data set of the same source.

Turning to `NC(=O)C1=CN([C@@H]2O[C@H](COP(=O)(O)OP(=O)(O)OC[C@H]3O[C@@H](n4cnc5c(N)ncnc54)[C@H](OP(=O)(O)O)[C@@H]3O)[C@@H](O)[C@H]2O)C=CC1` [NADPH], at KAR, the “coupled elongation with ELOVL6, [14C]malonyl-CoA, TLC” value is “caused production of 3-hydroxyacyl-CoA with a large increase in product levels”.

B1: ELOVL6 (Homo sapiens) (protein)
chain: T1 sequence (Q9H5J4 1-265 partner)
notes: N-terminal 3xFLAG, kept; HEK 293T expressed; Triton X-100 solubilized, anti-FLAG purified, reconstituted in POPC proteoliposomes; 29 kDa and N-glycosylated 32 kDa
Take B1: the Km came to 6.46 µM in “purified protein [1]” and 1.22 µM in “purified protein [2]”.

B2: 3xFLAG-KAR (3-ketoacyl-CoA reductase KAR), wild type (enzyme)
chain: T1 sequence (Q53GQ0 1-312)
Regarding B2, in data set [3], the in vitro FA elongation assay, purified ELOVL6 and KAR co-reconstituted into proteoliposomes, without NADPH: 3-ketoacyl-CoA levels compared to ELOVL6 alone was 3 fold; the in vitro FA elongation assay, purified ELOVL6 and wild type KAR in the same proteoliposomes, with 1 mM NADPH: product levels compared to ELOVL6 alone came to 8 fold.

B3: 3xFLAG-KAR S189A (enzyme)
chain: T1 sequence (Q53GQ0 1-312) with S189A
In data set [4], B3 had an in vitro FA elongation assay, purified ELOVL6 and KAR S189A co-reconstituted into proteoliposomes, with and without 1 mM NADPH: ELOVL6 activity compared to ELOVL6 alone of 3 fold.

Usually Km stands for the concentration of substrate that gives half-maximal velocity.
